According to article PMC12276895 (2025):

Molecular target: prefusion biotinylated MERS-CoV EMC/2012 S ectodomain trimer (MERS-CoV EMC/2012, UniProt K9N5Q8 18-1296)
Assay: SPR

| Binder | Kd [nM] |
| --- | --- |
| nTrimer2 homotrimeric miniprotein (designed binder) SPVKRFVREVLEEAEEAYEKGDRRQFEELLWLAEWAARDANDEELEEEIREFEKEVKGSGKRIDEIESKLKHLEEFTTHLIKLMETMLELLKLVSDGKSDSEEYKELLEKAEEYLKQATEAAKKI | 0.027 |
| nTrimer1 homotrimeric miniprotein (cb3-GSG-Trimer1) (designed binder) SPVKRFVREVLEEAEEAYEKGDRRQFEELLWLAEWAARDANDEELEEEIREFEKEVKGSGSEALEELEKALRELKKSTDELERSTEELEKNPSEDALVENNRLIVENNKIIVEVLRIIAKVLK | 0.021 |
| nTrimer5 homotrimeric miniprotein (designed binder) SPVKRFVREVLEEAEEAYEKGDRRQFEELLWLAEWAARDANDEELEEEIREFEKEVKGSGMTRLEQLLAQGVDPFEVLREKIEKLKEIWKKYEEAKGEEKERYRDELLKLMMEVLELMVELLSRR | 0.032 |
